The source of these data is paper PMC2720809 (Nature, 2009).

Broadly, the stoichiometry N is the number of molecules, sites or subunits per partner or assembly. As usually defined, the EC50 is the concentration needed to bring the measured effect to its halfway point.

For test [1], the target named is ΔzfP2X4-A (zebrafish P2X4.1 receptor with amino- and carboxyl-terminal deletions) (zebrafish) (UniProt F8W463). Put plainly: crystal structure.
Test [2] deals with ΔzfP2X4-B (ΔzfP2X4-A with C51F/N78K/N187R) (zebrafish) (UniProt F8W463). Put plainly: crystal structure.
Test [3] addresses T1, zebrafish P2X4.1 receptor (zfP2X4) (Danio rerio, UniProt F8W463).
T1 sequence (F8W463 1-389): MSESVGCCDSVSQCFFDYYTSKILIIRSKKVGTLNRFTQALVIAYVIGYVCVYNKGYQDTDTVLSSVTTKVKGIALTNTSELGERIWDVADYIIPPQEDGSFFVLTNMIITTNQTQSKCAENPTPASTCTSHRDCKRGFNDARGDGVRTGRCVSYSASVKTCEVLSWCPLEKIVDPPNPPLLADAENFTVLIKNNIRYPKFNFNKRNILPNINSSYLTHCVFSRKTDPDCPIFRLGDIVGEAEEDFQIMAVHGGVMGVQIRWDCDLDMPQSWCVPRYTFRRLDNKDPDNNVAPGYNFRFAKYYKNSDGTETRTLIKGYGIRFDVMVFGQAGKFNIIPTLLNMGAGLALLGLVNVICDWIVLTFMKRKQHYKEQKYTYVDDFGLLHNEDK
The experiment in a line: whole-cell patch clamp of transfected tsA201 cells. Type of test: cell-based. (The patch-clamp technique gives a direct electrical read-out from membranes.)

Turning to “ΔzfP2X4-A (zebrafish P2X4.1 receptor with amino- and carboxyl-terminal deletions) (from UniProt F8W463 1-389)”, the stoichiometry N in test [1] was 3.
“ΔzfP2X4-B (ΔzfP2X4-A with C51F/N78K/N187R) (from UniProt F8W463 1-389) (receptor)”: the stoichiometry N in test [2] came to 3.
Turning to `Nc1ncnc2c1ncn2[C@@H]1O[C@H](COP(=O)(O)OP(=O)(O)OP(=O)(O)O)[C@@H](O)[C@H]1O` [ATP], in test [3], the EC50 is approximately 800 µM.
